Data reported in paper PMC10579538 (The Journal of Biological Chemistry, 2023).
Each block holds one molecule with its values, some of them ahead of it.

Legend:
actin = actin (UniProt P68135)
[1] = biological target: myosin-7a subfragment-1 (motor domain and the first IQ motif) (human); test: mass photometry
[2] = biological target: full-length human myosin-7a heavy chain (isoform 1, long N-terminal isoform) (human, UniProt Q13402-1 1-2215); test: single-molecule two-color TIRF co-migration on actin
full-length human myosin-7a heavy chain (isoform 1, long N-terminal isoform), sequence (Q13402 whole entry, canonical isoform): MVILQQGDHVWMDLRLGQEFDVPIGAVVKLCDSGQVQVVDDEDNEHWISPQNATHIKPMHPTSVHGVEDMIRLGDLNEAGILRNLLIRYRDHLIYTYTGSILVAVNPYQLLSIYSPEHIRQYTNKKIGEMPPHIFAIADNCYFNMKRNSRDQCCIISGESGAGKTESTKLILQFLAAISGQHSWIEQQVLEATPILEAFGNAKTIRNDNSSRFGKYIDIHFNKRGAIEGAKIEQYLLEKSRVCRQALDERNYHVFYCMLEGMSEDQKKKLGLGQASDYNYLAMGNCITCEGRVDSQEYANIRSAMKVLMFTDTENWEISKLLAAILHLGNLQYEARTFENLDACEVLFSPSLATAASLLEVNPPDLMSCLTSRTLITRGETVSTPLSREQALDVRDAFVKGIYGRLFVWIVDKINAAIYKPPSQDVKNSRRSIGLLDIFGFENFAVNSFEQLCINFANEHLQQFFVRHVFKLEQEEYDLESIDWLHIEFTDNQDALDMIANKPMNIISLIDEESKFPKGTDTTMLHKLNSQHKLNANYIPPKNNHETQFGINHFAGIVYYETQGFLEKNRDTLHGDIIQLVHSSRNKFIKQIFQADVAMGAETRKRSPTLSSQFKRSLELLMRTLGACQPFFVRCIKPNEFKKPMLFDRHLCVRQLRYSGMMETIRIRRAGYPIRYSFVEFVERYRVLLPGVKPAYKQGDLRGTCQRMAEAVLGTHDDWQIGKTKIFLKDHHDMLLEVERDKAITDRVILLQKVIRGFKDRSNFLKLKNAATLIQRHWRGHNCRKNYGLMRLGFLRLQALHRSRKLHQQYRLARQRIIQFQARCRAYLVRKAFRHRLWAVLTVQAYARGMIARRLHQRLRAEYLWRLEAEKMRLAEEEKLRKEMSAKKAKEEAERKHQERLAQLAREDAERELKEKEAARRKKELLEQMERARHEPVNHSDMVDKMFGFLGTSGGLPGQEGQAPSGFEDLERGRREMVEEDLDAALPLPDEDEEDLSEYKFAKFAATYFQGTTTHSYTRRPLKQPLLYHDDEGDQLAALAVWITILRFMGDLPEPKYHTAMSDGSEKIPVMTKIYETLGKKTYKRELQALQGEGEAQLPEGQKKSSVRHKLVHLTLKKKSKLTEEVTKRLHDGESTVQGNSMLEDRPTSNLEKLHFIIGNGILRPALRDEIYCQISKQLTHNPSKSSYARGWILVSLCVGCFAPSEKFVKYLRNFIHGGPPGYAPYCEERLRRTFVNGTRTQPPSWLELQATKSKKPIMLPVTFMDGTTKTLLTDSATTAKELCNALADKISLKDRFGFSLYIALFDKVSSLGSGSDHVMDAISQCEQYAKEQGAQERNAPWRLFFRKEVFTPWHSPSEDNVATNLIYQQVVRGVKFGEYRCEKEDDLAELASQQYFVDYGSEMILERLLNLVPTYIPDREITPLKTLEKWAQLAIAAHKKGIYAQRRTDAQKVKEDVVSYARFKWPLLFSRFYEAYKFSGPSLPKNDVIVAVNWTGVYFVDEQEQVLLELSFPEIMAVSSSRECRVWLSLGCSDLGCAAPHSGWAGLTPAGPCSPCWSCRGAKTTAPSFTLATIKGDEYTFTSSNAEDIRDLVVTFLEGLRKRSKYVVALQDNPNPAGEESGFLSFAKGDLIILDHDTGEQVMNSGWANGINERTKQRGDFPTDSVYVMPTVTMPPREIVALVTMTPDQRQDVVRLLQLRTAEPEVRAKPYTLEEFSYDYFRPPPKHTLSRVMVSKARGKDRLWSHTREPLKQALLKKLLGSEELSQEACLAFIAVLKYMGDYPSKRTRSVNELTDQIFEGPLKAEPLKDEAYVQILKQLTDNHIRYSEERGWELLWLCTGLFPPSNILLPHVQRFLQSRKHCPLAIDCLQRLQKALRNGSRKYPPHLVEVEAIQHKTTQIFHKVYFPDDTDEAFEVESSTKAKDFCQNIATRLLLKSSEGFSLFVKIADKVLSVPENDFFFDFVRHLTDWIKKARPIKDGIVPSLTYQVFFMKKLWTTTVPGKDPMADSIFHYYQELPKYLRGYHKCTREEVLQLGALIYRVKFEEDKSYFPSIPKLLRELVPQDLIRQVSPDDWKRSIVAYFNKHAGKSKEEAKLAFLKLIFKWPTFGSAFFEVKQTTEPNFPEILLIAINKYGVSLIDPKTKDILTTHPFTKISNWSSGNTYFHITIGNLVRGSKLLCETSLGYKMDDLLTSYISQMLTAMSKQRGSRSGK

- K ATPase of the actin-activated steady-state ATPase (NADH-coupled assay) (actin): 11 µM
Molecule: myosin-7a subfragment-1 (motor domain and the first IQ motif) (domain or fragment)

- stoichiometry N [1]: 1
Molecule: regulatory light chain (from UniProt O14950 1-172) (natural protein)

- binding result [2]: binds
B1: mCherry-tagged MyRIP (myosin and Rab interacting protein) (natural protein, UniProt Q8NFW9-1 1-859, looked up)
chain: MGRKLDLSGLTDDETEHVLQVVQRDFNLRKKEEERLSELKQKLDEEGSKCSILSKHQQFVEHCCMRCCSPFTFLVNTKRQCGDCKFNVCKSCCSYQKHEKAWVCCVCQQARLLRAQSLEWFYNNVKSRFKRFGSAKVLKNLYRKHRLESGACFDILGGSLFESNLENEGSISGSDSTFYRQSEGHSVMDTLAVALRVAEEAIEEAISKAEAYGDSLDKQNEASYLRDHKEELTEELATTILQKIIRKQKSKSEQQVEEEPGWPHPQSCSTKVADEGTSASPGGYRAPAALWRSQSAFSITGEEALKTPPVEAPSRQPRDQGQHPRAESALPSWKSVDRLDETNLAPVLQSPDGNWVALKDGAPPPTRLLAKPKSGTFQALEVASSVASAYDEMGSDSEEDFDWSEALSKLCPRSRALPRNPQPQPTQAQSSDQGPIAASPSSALSPNPEAMCSDSETSSAGSSREVGHQARLSWLQRKAPRNPAAEKMRLHGELDVNFNPQLASRETSDSSEPEEAPHTTDRRARRWRRARLGSEEPSKEPSSPSAQLRDLDTHQVSDDLSETDISNEARDPQTLTDTTEEKRRNRLYELAMKMSEKETSSGEDQESEPKTESENQKESLSSEDNSQSVQEELKKKFSAVSLCNISTEVLKVINATEELIAGSTGPWESPQVPPDRQKGMFPRGTDQVRLDEQLTSLEENVYLAAGTVYGLETQLTELEDAARCIHSGTDETHLADLEDQVATAAAQVHHAELQISDIESRISALTIAGLNIAPCVRFTRRRDQKQRTQVQTIDTSRQQRRKLPAPPVKAEKIETSSVTTIKTFNHNFILQGSSTNRTKERKGTTKDLMEPALESAVMY
